Measurements taken from patent US20060194720A1 (SANWA KAGAKU KENKYUSHO, published 2006).
Where no end group is shown, it is not given here.

Target: human GLP-1 receptor (human, UniProt P43220 24-463)
Assay: cell-based or functional assay

Cyclic AMP-producing activity, relative to naturally occurring GLP-1 (=100%), at 1 × 10^-10 M [%] | Cyclic AMP-producing activity, relative to naturally occurring GLP-1 (=100%), at 1 × 10^-11 M [%] | Cyclic AMP-producing activity, relative to naturally occurring GLP-1 (=100%), at × 10^-9 M [%] | Binder
104 | 53.2 | 88.8 | HSEGTFTSDVSSYLEGQAAKEFIAWLVKGRKK-NH2 [[Ser^8]-GLP-1 (7-35)-Arg-Lys-Lys-NH2]
75.6 | -17 | 102 | HSEGTFTSDVSSYLEGQAAKEFIAWLVKGRRRR-NH2 [[Ser^8]-GLP-1 (7-35)-Arg-Arg-Arg-Arg-NH2]
95.5 | 56.4 | 91.2 | HSEGTFTSDVSSYLEGQAAKEFIAWLVKGRRR-NH2 [[Ser^8]-GLP-1 (7-35)-Arg-Arg-Arg-NH2]
96.6 | 45 | 86.7 | HSEGTFTSDVSSYLEGQAAKEFIAWLVKGKKKR-NH2 [[Ser^8]-GLP-1 (7-35)-Lys-Lys-Lys-Arg-NH2]
88.9 | 36.2 | 81.6 | HSEGTFTSDVSSYLEGQAAKEFIAWLVKGKKR-NH2 [[Ser^8]-GLP-1 (7-35)-Lys-Lys-Arg-NH2]

The remaining lines, values behind:

Binder | Cyclic AMP-producing activity, relative to naturally occurring GLP-1 (=100%), at 1 × 10^-10 M [%] | Cyclic AMP-producing activity, relative to naturally occurring GLP-1 (=100%), at 1 × 10^-11 M [%] | Cyclic AMP-producing activity, relative to naturally occurring GLP-1 (=100%), at × 10^-9 M [%]
HSEGTFTSDVSSYLEGQAAKEFIAWLVKGKR-NH2 [[Ser^8]-GLP-1 (7-35)-Lys-Arg-NH2] | 113 | 100 | 80.5
HSEGTFTSDVSSYLEGQAAKEFIAWLVKGR-NH2 [[Ser^8]-GLP-1 (7-35)-Arg-NH2] | 111 | 97.9 | 83.6
HSEGTFTSDVSSYLEGQAAKEFIAWLVKGRRRRR-NH2 [[Ser^8]-GLP-1 (7-35)-Arg-Arg-Arg-Arg-Arg-NH2] | 64.7 | 34 | 106
HSEGTFTSDVSSYLEGQAAKEFIAWLVKGRRRRRRRRR-NH2 [[Ser^8]-GLP-1 (7-35)-Arg-Arg-Arg-Arg-Arg-Arg-Arg-Arg-Arg-NH2] | 87.4 | 74.5 | 95.9
HSEGTFTSDVSSYLEGQAAKEFIAWLVKGKKKKKR-NH2 [[Ser^8]-GLP-1 (7-35)-Lys-Lys-Lys-Lys-Lys-Arg-NH2] | 55.3 | 7.9 | 63.4
HSEGTFTSDVSSYLEGQAAKEFIAWLVKGKKKKKKKR-NH2 [[Ser^8]-GLP-1 (7-35)-Lys-Lys-Lys-Lys-Lys-Lys-Lys-Arg-NH2] | 55.6 | 8.8 | 92.6
HSEGTFTSDVSSYLEGQAAKEFIAWLVKGRRRRRR-NH2 [[Ser^8]-GLP-1 (7-35)-Arg-Arg-Arg-Arg-Arg-Arg-NH2] | 48.6 | 54.3 | 75.6
HSEGTFTSDVSSYLEGQAAKEFIAWLVKGKKKKKKKKKKR-NH2 [[Ser^8]-GLP-1 (7-35)-Lys-Lys-Lys-Lys-Lys-Lys-Lys-Lys-Lys-Lys-Arg-NH2] | 20.8 | 7.5 | 55.4
HSEGTFTSDVSSYLEGQAAKEFIAWLVKGRRRRRRR-NH2 [[Ser^8]-GLP-1 (7-35)-Arg-Arg-Arg-Arg-Arg-Arg-Arg-NH2] | 81.1 | 64.9 | 80.6
